Test results: patent US20250206821A1 (Hoffmann-La Roche, published 2025)

What was measured:
VEGF [1] = target: T1, VEGF (UniProt P15692-9 27-147); test: bridging ELISA, VEGF capture, biocytinamid-Cy5 detection; background signal
T1 construct: also called VEGF121
T1 sequence (looked up): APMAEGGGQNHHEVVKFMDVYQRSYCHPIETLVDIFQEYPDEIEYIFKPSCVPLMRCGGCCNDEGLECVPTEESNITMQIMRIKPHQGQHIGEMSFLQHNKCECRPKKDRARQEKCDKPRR

VEGF [2] = target: T1, VEGF; test: bridging ELISA on exchange reaction mix; VEGF capture, biocytinamid-Cy5 detection; input 1.3 µM; highest value of the assay = 100%
VEGF [3] = target: T1, VEGF; test: bridging ELISA, VEGF capture, biocytinamid-Cy5 or digoxygenin-Cy5 detection; background signal
VEGF [4] = target: T1, VEGF; test: bridging ELISA on exchange reaction mix; VEGF capture, digoxygenin-Cy5 detection; input 1.3 µM; highest value of the assay = 100%
VEGF [5] = target: T1, VEGF; test: bridging ELISA, VEGF capture, digoxygenin-Cy5 detection; background signal

Binder | binding result (VEGF [1]) | relative signal intensity (VEGF [2]) [%] | binding result (VEGF [3]) | relative signal intensity (VEGF [4]) [%] | binding result (VEGF [5])
anti-bio/anti-fluos bsAb (bio 2/3-IgG with E357K MHCFcRP x fluos 2/3-IgG with K370E MHCFcRP) (bispecific antibody, Product of the 2/3-IgG exchange reaction, assayed as reaction mix; also called bio fluos) heavy 1: not shown light 1: DIQMTQSPSSLSASVGDRVTITCRASGNIHNYLSWYQQKPGKVPKLLIYSAKTLADGVPSRFSGSGSGTDFTLTISSLQPEDVATYYCQHFWSSIYTFGQGTKLEIKRTVAAPSVFIFPPSDEQLKSGTASVVCLLNNFYPREAKVQWKVDNALQSGNSQESVTEQDSKDSTYSLSSTLTLSKADYEKHKVYACEVTHQGLSSPVTKSFNRGEC heavy 2: not shown light 2: DIVMTQTPLSLSVTPGQPASISCKSSQSLVHSNGNTYLRWYLQKPGQSPKVLIYKVSNRVSGVPDRFSGSGSGTDFTLKISRVEAEDVGVYYCSQSTHVPWTFGQGTKLEIKRTVAAPSVFIFPPSDEQLKSGTASVVCLLNNFYPREAKVQWKVDNALQSGNSQESVTEQDSKDSTYSLSSTLTLSKADYEKHKVYACEVTHQGLSSPVTKSFNRGEC | no binding (tested: input molecule concentration 1.3 µM) | 9 |  |  | 
anti-dig/anti-bio bsAb (dig 2/3-IgG with E357K MHCFcRP x bio 2/3-IgG with K370E MHCFcRP) (bispecific antibody, Product of the 2/3-IgG exchange reaction, assayed as reaction mix; also called dig bio; not shown: residue limits no) heavy 1: QVQLVESGGGLVKPGGSLRLSCAASGFTFSDYAMSWIRQAPGKGLEWVSSINIGATYIYYADSVKGRFTISRDNAKNSLYLQMNSLRAEDTAVYYCARPGSPYEYDKAYYSMAYWGQGTTVTVSSASTKGPSVFPLAPSSKSTSGGTAALGCLVKDYFPEPVTVSWNSGALTSGVHTFPAVLQSSGLYSLSSVVTVPSSSLGTQTYICNVNHKPSNTKVDKKVEPKSC light 1: not shown heavy 2: not shown light 2: DIQMTQSPSSLSASVGDRVTITCRASGNIHNYLSWYQQKPGKVPKLLIYSAKTLADGVPSRFSGSGSGTDFTLTISSLQPEDVATYYCQHFWSSIYTFGQGTKLEIKRTVAAPSVFIFPPSDEQLKSGTASVVCLLNNFYPREAKVQWKVDNALQSGNSQESVTEQDSKDSTYSLSSTLTLSKADYEKHKVYACEVTHQGLSSPVTKSFNRGEC |  | 9 | no binding (tested: input molecule concentration 1.3 µM) | 6.2 | 
anti-bio/anti-dig bsAb (bio 2/3-IgG with E357K MHCFcRP x dig 2/3-IgG with K370E MHCFcRP) (bispecific antibody, Product of the 2/3-IgG exchange reaction, assayed as reaction mix; also called bio dig; not shown: residue limits no) heavy 1: not shown light 1: DIQMTQSPSSLSASVGDRVTITCRASGNIHNYLSWYQQKPGKVPKLLIYSAKTLADGVPSRFSGSGSGTDFTLTISSLQPEDVATYYCQHFWSSIYTFGQGTKLEIKRTVAAPSVFIFPPSDEQLKSGTASVVCLLNNFYPREAKVQWKVDNALQSGNSQESVTEQDSKDSTYSLSSTLTLSKADYEKHKVYACEVTHQGLSSPVTKSFNRGEC heavy 2: QVQLVESGGGLVKPGGSLRLSCAASGFTFSDYAMSWIRQAPGKGLEWVSSINIGATYIYYADSVKGRFTISRDNAKNSLYLQMNSLRAEDTAVYYCARPGSPYEYDKAYYSMAYWGQGTTVTVSSASTKGPSVFPLAPSSKSTSGGTAALGCLVKDYFPEPVTVSWNSGALTSGVHTFPAVLQSSGLYSLSSVVTVPSSSLGTQTYICNVNHKPSNTKVDKKVEPKSC light 2: not shown |  | 9.3 | no binding (tested: input molecule concentration 1.3 µM) | 6.2 | 
anti-fluos/anti-bio bsAb (fluos 2/3-IgG with E357K MHCFcRP x bio 2/3-IgG with K370E MHCFcRP) (bispecific antibody, Product of the 2/3-IgG exchange reaction, assayed as reaction mix; also called fluos bio) heavy 1: not shown light 1: DIVMTQTPLSLSVTPGQPASISCKSSQSLVHSNGNTYLRWYLQKPGQSPKVLIYKVSNRVSGVPDRFSGSGSGTDFTLKISRVEAEDVGVYYCSQSTHVPWTFGQGTKLEIKRTVAAPSVFIFPPSDEQLKSGTASVVCLLNNFYPREAKVQWKVDNALQSGNSQESVTEQDSKDSTYSLSSTLTLSKADYEKHKVYACEVTHQGLSSPVTKSFNRGEC heavy 2: not shown light 2: DIQMTQSPSSLSASVGDRVTITCRASGNIHNYLSWYQQKPGKVPKLLIYSAKTLADGVPSRFSGSGSGTDFTLTISSLQPEDVATYYCQHFWSSIYTFGQGTKLEIKRTVAAPSVFIFPPSDEQLKSGTASVVCLLNNFYPREAKVQWKVDNALQSGNSQESVTEQDSKDSTYSLSSTLTLSKADYEKHKVYACEVTHQGLSSPVTKSFNRGEC | no binding (tested: input molecule concentration 1.3 µM) | 10.2 |  |  | 
anti-fluos/anti-dig bsAb (fluos 2/3-IgG with E357K MHCFcRP x dig 2/3-IgG with K370E MHCFcRP) (bispecific antibody, Product of the 2/3-IgG exchange reaction, assayed as reaction mix; also called fluos dig; not shown: residue limits no) heavy 1: not shown light 1: DIVMTQTPLSLSVTPGQPASISCKSSQSLVHSNGNTYLRWYLQKPGQSPKVLIYKVSNRVSGVPDRFSGSGSGTDFTLKISRVEAEDVGVYYCSQSTHVPWTFGQGTKLEIKRTVAAPSVFIFPPSDEQLKSGTASVVCLLNNFYPREAKVQWKVDNALQSGNSQESVTEQDSKDSTYSLSSTLTLSKADYEKHKVYACEVTHQGLSSPVTKSFNRGEC heavy 2: QVQLVESGGGLVKPGGSLRLSCAASGFTFSDYAMSWIRQAPGKGLEWVSSINIGATYIYYADSVKGRFTISRDNAKNSLYLQMNSLRAEDTAVYYCARPGSPYEYDKAYYSMAYWGQGTTVTVSSASTKGPSVFPLAPSSKSTSGGTAALGCLVKDYFPEPVTVSWNSGALTSGVHTFPAVLQSSGLYSLSSVVTVPSSSLGTQTYICNVNHKPSNTKVDKKVEPKSC light 2: not shown |  |  |  | 6.3 | no binding (tested: input molecule concentration 1.3 µM)
anti-PDGF/anti-bio bsAb (PDGF 2/3-IgG with E357K MHCFcRP x bio 2/3-IgG with K370E MHCFcRP) (bispecific antibody, Product of the 2/3-IgG exchange reaction, assayed as reaction mix; also called PDGF bio; not shown: residue limits no) heavy 1: EVQLVESGGGLVQPGGSLRLSCAASGFTFSSYWMSWVRQAPEKGLEWVSTISDGGGLTYYADSVKGRFTISRDNAKNSLYLQMNSLRAEDTAVYYCAESGGYTDWLFGYWGQGTLVTVSSASTKGPSVFPLAPSSKSTSGGTAALGCLVKDYFPEPVTVSWNSGALTSGVHTFPAVLQSSGLYSLSSVVTVPSSSLGTQTYICNVNHKPSNTKVDKKVEPKSC light 1: not shown heavy 2: not shown light 2: DIQMTQSPSSLSASVGDRVTITCRASGNIHNYLSWYQQKPGKVPKLLIYSAKTLADGVPSRFSGSGSGTDFTLTISSLQPEDVATYYCQHFWSSIYTFGQGTKLEIKRTVAAPSVFIFPPSDEQLKSGTASVVCLLNNFYPREAKVQWKVDNALQSGNSQESVTEQDSKDSTYSLSSTLTLSKADYEKHKVYACEVTHQGLSSPVTKSFNRGEC | no binding (tested: input molecule concentration 1.3 µM) | 10.5 |  |  | 
anti-bio/anti-PDGF bsAb (bio 2/3-IgG with E357K MHCFcRP x PDGF 2/3-IgG with K370E MHCFcRP) (bispecific antibody, Product of the 2/3-IgG exchange reaction, assayed as reaction mix; also called bio PDGF; not shown: residue limits no) heavy 1: not shown light 1: DIQMTQSPSSLSASVGDRVTITCRASGNIHNYLSWYQQKPGKVPKLLIYSAKTLADGVPSRFSGSGSGTDFTLTISSLQPEDVATYYCQHFWSSIYTFGQGTKLEIKRTVAAPSVFIFPPSDEQLKSGTASVVCLLNNFYPREAKVQWKVDNALQSGNSQESVTEQDSKDSTYSLSSTLTLSKADYEKHKVYACEVTHQGLSSPVTKSFNRGEC heavy 2: EVQLVESGGGLVQPGGSLRLSCAASGFTFSSYWMSWVRQAPEKGLEWVSTISDGGGLTYYADSVKGRFTISRDNAKNSLYLQMNSLRAEDTAVYYCAESGGYTDWLFGYWGQGTLVTVSSASTKGPSVFPLAPSSKSTSGGTAALGCLVKDYFPEPVTVSWNSGALTSGVHTFPAVLQSSGLYSLSSVVTVPSSSLGTQTYICNVNHKPSNTKVDKKVEPKSC light 2: not shown | no binding (tested: input molecule concentration 1.3 µM) | 10.1 |  |  | 
anti-dig/anti-fluos bsAb (dig 2/3-IgG with E357K MHCFcRP x fluos 2/3-IgG with K370E MHCFcRP) (bispecific antibody, Product of the 2/3-IgG exchange reaction, assayed as reaction mix; also called dig fluos; not shown: residue limits no) heavy 1: QVQLVESGGGLVKPGGSLRLSCAASGFTFSDYAMSWIRQAPGKGLEWVSSINIGATYIYYADSVKGRFTISRDNAKNSLYLQMNSLRAEDTAVYYCARPGSPYEYDKAYYSMAYWGQGTTVTVSSASTKGPSVFPLAPSSKSTSGGTAALGCLVKDYFPEPVTVSWNSGALTSGVHTFPAVLQSSGLYSLSSVVTVPSSSLGTQTYICNVNHKPSNTKVDKKVEPKSC light 1: not shown heavy 2: not shown light 2: DIVMTQTPLSLSVTPGQPASISCKSSQSLVHSNGNTYLRWYLQKPGQSPKVLIYKVSNRVSGVPDRFSGSGSGTDFTLKISRVEAEDVGVYYCSQSTHVPWTFGQGTKLEIKRTVAAPSVFIFPPSDEQLKSGTASVVCLLNNFYPREAKVQWKVDNALQSGNSQESVTEQDSKDSTYSLSSTLTLSKADYEKHKVYACEVTHQGLSSPVTKSFNRGEC |  |  |  | 6.7 | no binding (tested: input molecule concentration 1.3 µM)
